Reference: publication doi:10.1101/2022.09.01.506260 (bioRxiv, 2022)
Square brackets hold non-standard residues; d marks the D form. pT = C[C@@H](OP(=O)(O)O)[C@H](N)C(=O)O; pS = N[C@@H](COP(=O)(O)O)C(=O)O

T1: human 14-3-3ε (human, UniProt P62258-1 1-255)
T1 sequence: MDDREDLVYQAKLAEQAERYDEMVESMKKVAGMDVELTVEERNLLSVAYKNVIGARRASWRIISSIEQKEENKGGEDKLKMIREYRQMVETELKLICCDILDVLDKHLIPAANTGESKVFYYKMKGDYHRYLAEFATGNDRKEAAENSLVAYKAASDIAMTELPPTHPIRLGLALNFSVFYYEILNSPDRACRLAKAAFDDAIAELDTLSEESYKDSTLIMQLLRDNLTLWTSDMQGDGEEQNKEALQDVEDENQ

B1: CrkII NSH3 domain (CrkII^NSH3) (domain or fragment)
chain: AEYVRALFDFNGNDEEDLPFKKGDILRIRDKPEEQWWNAEDSEGKRGMIPVPYVEKYR
B2: CrkII SH2 domain (CrkII^SH2) (domain or fragment)
chain: DSEERSSWYWGRLSRQEAVALLQGQRHGVFLVRDSSTSPGDYVLSVSENSRVSHYIINSSGPRPPVPPSPAQPPPGVSPSRLRIGDQEFDSLPALLEFYKIHYLDTTTLIEPVSR
B3: CrkII SH2-NSH3 construct lacking the CSH3 domain (CrkII^ΔCSH3) (domain or fragment)
chain: MAGNFDSEERSSWYWGRLSRQEAVALLQGQRHGVFLVRDSSTSPGDYVLSVSENSRVSHYIINSSGPRPPVPPSPAQPPPGVSPSRLRIGDQEFDSLPALLEFYKIHYLDTTTLIEPVSRSRQGSGVILRQEEAEYVRALFDFNGNDEEDLPFKKGDILRIRDKPEEQWWNAEDSEGKRGMIPVPYVEKYRPASASVSALIGGNQEGSHPQPLGGPEPGPYAQPSVNT
B4: full length recombinant PEAK3 (PEAK3^FL) from insect cells (natural protein)
chain: MSSPEPPTEPPEPDNPTWSTQPTYSNLGQIRAHLLPSKACRLRTPGSLSTNPEPLPPPLPKKILTRTQSLPTRRTLHPSSIQVQPPRRPFLGSHSVDKSQAAVGPACLPAELTFGPADAPLGLSLRDLHSPEAVHTALAARQLQGLRTIYARLRARLMGGHPGPCHPGHSFRLLDSSPCAESGDALYYRVVRAHEDAWHILVAKVPKPGADVPHPWGLELQASLSPHFNLQGLCGLVPEGTLPGAPWRGAVALAAEVPERTVAQWLAEACTQPPEEFVWAVALLLLQLSAALKFLEAWGAALVELRPENLLLVAPRGCATTGPPRLLLTDFGRVCLQPPGPPGSPGPHAPQLGSLLRALLSLAAPSTTPLAAGLELLAAQLTRLRPSASRTRGALQALLWGPGPELRGRGAPLGPWLRALGPWLRVRRGLLVLRLAERAAGGEAPSLEDWLCCEYLAEATESSMGQALALLWD
modifications: phosphoserine at 69 (pS69)
B5: PEAK2^IDR1 (N-terminally truncated PEAK2, residues 802-1406) (domain or fragment)
chain: EDVSPSGPQQPPPLPQKKIVSRAASSPDGFFWTQGSPKPGTASPKLNLSHSETNVHDESHFSYSLSPGNRHHPVFSSSDPLEKAFKGSGHWLPAAGLAGNRGGCGSPGLQCKGAPSASSSQLSVSSQASTGSTQLQLHGLLSNISSKEGTYAKLGGLYTQSLARLVAKCEDLFMGGQKKELHFNENNWSLFKLTCNKPCCDSGDAIYYCATCSEDPGSTYAVKICKAPEPKTVSYCSPSVPVHFNIQQDCGHFVASVPSSMLSSPDAPKDPVPALPTHPPAQEQDCVVVITREVPHQTASDFVRDSAASHQAEPEAYERRVCFLLLQLCNGLEHLKEHGIIHRDLCLENLLLVHCTLQAGPGPAPAPAPAPAPAAAAPPCSSAAPPAGGTLSPAAGPASPEGPREKQLPRLIISNFLKAKQKPGGTPNLQQKKSQARLAPEIVSASQYRKFDEFQTGILIYELLHQPNPFEVRAQLRERDYRQEDLPPLPALSLYSPGLQQLAHLLLEADPIKRIRIGEAKRVLQCLLWGPRRELVQQPGTSEEALCGTLHNWIDMKRALMMMKFAEKAVDRRRGVELEDWLCCQYLASAEPGALLQSLKLLQLL
modifications: phosphorylation of the tandem site 14-3-3 motif (RAASSP, first S of SS underlined) found by proteomic analysis
B6: PEAK1^IDR1 (N-terminally truncated PEAK1, residues 1082-1746) (domain or fragment)
chain: LPELEREDGKEDISDPMDPNPCSATYSNLGQSRAAMIPPKQPRQPKGAVDDAIAFGGKTDQEAPNASQPTPPPLPKKMIIRANTEPISKDLQKSMESSLCVMANPTYDIDPNWDASSAGSSISYELKGLDIESYDSLERPLRKERPVPSAANSISSLTTLSIKDRFSNSMESLSSRRGPSCRQGRGIQKPQRQALYRGLENREEVVGKIRSLHTDALKKLAVKCEDLFMAGQKDQLRFGVDSWSDFRLTSDKPCCEAGDAVYYTASYAKDPLNNYAVKICKSKAKESQQYYHSLAVRQSLAVHFNIQQDCGHFLAEVPNRLLPWEDPDDPEKDEDDMEETEEDAKGETDGKNPKPCSEAASSQKENQGVMSKKQRSHVVVITREVPCLTVADFVRDSLAQHGKSPDLYERQVCLLLLQLCSGLEHLKPYHVTHCDLRLENLLLVHYQPGGTAQGFGPAEPSPTSSYPTRLIVSNFSQAKQKSHLVDPEILRDQSRLAPEIITATQYKKCDEFQTGILIYEMLHLPNPFDENPELKEREYTRADLPRIPFRSPYSRGLQQLASCLLNPNPSERILISDAKGILQCLLWGPREDLFQTFTACPSLVQRNTLLQNWLDIKRTLLMIKFAEKSLDREGGISLEDWLCAQYLAFATTDSLSCIVKILQHR
B7: PEAK3^tandem peptide, non-phosphorylated (residues 54-74) (peptide)
peptide: Ac-PLPPPLPKKILTRTQSLPTRR-NH2

Tests used:
[1] = target: B1; assay: SPR
[2] = target: B7; assay: ITC
human 14-3-3ε = target: T1, human 14-3-3ε; assay: SPR
SEC [3] = target: the molecule itself; assay: SEC
SEC-MALS = target: the molecule itself; assay: SEC-MALS
SEC [4] = target: the molecule itself; assay: SEC; remark: listed apart in the source

Binder: Ac-FSPPPPPPKSRHL-NH2 [PEAK2 709-721 proline-rich motif peptide]
- Kd [1]: 13 µM

Binder: Ac-PTPPPLPKKMIIR-NH2 [PEAK1 1150-1162 proline-rich motif peptide]
- binding result [1]: binds

Binder: B1
- KD after pre-saturating the peptide with 14-3-3ɣ [2]: 0.7 µM

Binder: Ac-PPPLPKKMIIRAN[pT]EPISKD-NH2 [PEAK1^tandem-pT1165 phosphopeptide (residues 1152-1171)]
- binding result (human 14-3-3ε): binds

Binder: B2
- stoichiometry N (SEC [3]): 2

Binder: Ac-PPPLPQKKIVSRAA[pS]SPDGF-NH2 [PEAK2^tandem-pS826 phosphopeptide (residues 812-831)]
- binding result (human 14-3-3ε): binds

Binder: Ac-PLPPPLPKKILTRTQ[pS]LPTRR-NH2 [PEAK3^tandem-pS69 phosphopeptide (residues 54-74)]
- binding result (human 14-3-3ε): binds

Binder: B3
- stoichiometry N (SEC [3]): 2

Binder: B4
- stoichiometry N (SEC-MALS): 2

Binder: B5
- stoichiometry N (SEC [4]): 2

Binder: Ac-PLPPPLPKKILTR-NH2 [PEAK3 54-66 proline-rich motif peptide]
- binding result [1]: binds

Binder: B6
- stoichiometry N (SEC [4]): 2

Binder: B7
- Kd [1]: 0.6 µM

Binder: Ac-QPPPLPQKKIVSR-NH2 [PEAK2 809-821 proline-rich motif peptide]
- binding result [1]: binds
